# Measurements from patent US20220332804A1 (CSL INNOVATION, published 2022).
# T1: human C2 G414A (human, UniProt P06681 21-752)
# T1 sequence: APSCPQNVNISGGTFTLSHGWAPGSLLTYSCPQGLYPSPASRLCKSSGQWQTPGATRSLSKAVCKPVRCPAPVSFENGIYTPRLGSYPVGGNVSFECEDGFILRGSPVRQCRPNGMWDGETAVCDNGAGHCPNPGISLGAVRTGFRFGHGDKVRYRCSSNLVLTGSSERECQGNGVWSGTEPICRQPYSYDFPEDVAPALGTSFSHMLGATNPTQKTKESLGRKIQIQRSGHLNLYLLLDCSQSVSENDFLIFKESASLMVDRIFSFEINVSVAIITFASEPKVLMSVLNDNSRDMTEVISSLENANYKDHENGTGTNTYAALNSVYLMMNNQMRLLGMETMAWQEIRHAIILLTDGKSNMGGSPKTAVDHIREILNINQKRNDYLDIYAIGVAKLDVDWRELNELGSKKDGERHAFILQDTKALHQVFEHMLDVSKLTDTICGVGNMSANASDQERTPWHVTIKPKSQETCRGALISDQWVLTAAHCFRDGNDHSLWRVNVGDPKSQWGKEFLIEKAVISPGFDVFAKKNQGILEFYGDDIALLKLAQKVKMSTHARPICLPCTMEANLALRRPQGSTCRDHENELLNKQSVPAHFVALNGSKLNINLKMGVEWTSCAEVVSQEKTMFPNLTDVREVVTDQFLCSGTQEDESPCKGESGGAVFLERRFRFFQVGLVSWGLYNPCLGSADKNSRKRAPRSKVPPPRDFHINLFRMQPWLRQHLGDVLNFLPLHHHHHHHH
# T2: human C2 G466A (human, UniProt P06681 21-752)
# T2 sequence: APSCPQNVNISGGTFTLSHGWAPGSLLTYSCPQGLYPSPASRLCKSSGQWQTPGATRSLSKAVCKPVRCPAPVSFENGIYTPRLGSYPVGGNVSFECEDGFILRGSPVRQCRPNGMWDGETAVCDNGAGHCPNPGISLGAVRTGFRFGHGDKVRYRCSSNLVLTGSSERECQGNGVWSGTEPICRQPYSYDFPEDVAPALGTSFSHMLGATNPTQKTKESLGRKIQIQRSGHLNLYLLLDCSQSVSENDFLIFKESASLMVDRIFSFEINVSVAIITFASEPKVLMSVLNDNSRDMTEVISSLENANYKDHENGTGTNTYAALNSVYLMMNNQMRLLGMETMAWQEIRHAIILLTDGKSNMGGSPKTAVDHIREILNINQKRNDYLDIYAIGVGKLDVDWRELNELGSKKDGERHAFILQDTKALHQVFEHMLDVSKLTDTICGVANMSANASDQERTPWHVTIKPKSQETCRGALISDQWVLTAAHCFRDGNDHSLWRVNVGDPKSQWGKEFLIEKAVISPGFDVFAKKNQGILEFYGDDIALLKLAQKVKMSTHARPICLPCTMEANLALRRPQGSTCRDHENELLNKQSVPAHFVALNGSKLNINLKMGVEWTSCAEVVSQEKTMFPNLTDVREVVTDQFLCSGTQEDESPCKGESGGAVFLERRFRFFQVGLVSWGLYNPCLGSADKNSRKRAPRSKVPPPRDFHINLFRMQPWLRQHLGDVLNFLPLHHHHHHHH
# T3: human C2 N268A (human, UniProt P06681 21-752)
# T3 sequence: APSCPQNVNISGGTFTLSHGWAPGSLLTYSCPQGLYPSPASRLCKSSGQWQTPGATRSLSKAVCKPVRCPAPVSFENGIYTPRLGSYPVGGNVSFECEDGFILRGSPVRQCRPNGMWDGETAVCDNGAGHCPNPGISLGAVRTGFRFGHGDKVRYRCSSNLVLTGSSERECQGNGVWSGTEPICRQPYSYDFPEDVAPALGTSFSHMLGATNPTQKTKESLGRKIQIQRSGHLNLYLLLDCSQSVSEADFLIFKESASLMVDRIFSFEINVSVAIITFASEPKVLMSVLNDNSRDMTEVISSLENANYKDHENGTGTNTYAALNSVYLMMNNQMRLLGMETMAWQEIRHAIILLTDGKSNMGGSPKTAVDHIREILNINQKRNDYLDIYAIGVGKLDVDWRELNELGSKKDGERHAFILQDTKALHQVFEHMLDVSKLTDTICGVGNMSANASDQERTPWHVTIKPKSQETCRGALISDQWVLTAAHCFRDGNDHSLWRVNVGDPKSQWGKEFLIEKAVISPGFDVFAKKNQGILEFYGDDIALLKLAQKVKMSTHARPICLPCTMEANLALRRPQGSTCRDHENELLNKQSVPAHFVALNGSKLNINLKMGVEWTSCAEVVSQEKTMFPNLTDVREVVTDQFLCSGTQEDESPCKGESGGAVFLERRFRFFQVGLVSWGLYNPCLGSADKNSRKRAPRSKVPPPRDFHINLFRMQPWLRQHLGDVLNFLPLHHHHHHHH
# T4: human C2 L439A (human, UniProt P06681 21-752)
# T4 sequence: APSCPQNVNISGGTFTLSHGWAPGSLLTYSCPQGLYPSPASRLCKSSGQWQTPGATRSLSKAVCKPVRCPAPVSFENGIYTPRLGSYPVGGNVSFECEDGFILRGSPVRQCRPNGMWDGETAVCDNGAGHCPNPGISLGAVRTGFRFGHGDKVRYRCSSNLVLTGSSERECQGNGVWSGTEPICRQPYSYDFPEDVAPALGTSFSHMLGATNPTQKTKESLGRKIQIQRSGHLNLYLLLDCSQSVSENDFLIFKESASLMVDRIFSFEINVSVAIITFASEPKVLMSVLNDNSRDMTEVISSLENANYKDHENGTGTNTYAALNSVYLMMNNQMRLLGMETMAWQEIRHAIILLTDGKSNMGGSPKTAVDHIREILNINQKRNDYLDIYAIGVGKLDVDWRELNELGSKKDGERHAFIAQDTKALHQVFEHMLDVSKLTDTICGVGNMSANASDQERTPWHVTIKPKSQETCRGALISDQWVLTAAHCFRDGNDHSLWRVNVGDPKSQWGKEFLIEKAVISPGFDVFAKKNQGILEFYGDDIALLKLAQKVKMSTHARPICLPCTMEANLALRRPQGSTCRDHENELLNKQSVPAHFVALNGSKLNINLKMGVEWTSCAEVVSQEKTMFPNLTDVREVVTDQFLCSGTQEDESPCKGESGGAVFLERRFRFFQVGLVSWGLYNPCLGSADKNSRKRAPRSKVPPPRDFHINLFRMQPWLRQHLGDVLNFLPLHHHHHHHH
# Key:
# Test in all cases: SPR; KD relative to WT C2;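 further: biacore SPR at 37 °C, anti-C2 mAbs captured on an anti-human IgG chip, alanine or serine C2 surface mutants tested, KD from 1:1 fit compared with wild-type C2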
# human C2 G414A = target: T1, human C2 G414A
# human C2 G466A = target: T2, human C2 G466A
# human C2 N268A = target: T3, human C2 N268A
# human C2 L439A = target: T4, human C2 L439A
binder,measurement,setting,value
"RF16-214 (antibody, V domains shown) VH: EVQLLESGGGLVQPGGSLRLSCAASGFTFSWYQMMWVRQAPGKGLEWVSRIYPSGGGTAYADSVKGRFTISRDNSKNTLYLQMNSLRAEDTAVYYCARDAGYGDNWGQGTLVTVSS VL: QSALTQPPSVSVSPGQTASITCSGDKLGEKYASWYQQKAGQSPVMVIYQDRKRPSGIPERFSGSNSGNTATLTISGTQAMDEADYYCQAWDTRAVVFGGGTKLTVLG",Fold diff,human C2 G414A,0 fold
same,Fold diff,human C2 G466A,5 fold
same,Fold diff,human C2 N268A,2 fold
same,Fold diff,human C2 L439A,42 fold
